# Measurements reported in US20250002596A1, “NEUTRALIZING ANTI-CD95L MONOCLONAL ANTIBODIES” (INSTITUT NATIONAL DE LA SANTÉ ET DE LA RECHERCHE MÉDICALE, priority 2021, published 2025).
# Entries after “also recorded” stand apart in the source; their conditions may differ.
# T1: Ig-CD95L (soluble and cytotoxic human CD95L) (UniProt P48023 103-281)
# T1 chain: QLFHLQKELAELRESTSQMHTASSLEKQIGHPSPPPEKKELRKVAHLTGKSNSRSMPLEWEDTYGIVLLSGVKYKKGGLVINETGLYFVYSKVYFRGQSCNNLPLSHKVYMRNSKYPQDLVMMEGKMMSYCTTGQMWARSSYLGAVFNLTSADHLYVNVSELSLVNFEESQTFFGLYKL
# T2: human CD95L expressed on cells (UniProt P48023 1-281)
# T2 chain: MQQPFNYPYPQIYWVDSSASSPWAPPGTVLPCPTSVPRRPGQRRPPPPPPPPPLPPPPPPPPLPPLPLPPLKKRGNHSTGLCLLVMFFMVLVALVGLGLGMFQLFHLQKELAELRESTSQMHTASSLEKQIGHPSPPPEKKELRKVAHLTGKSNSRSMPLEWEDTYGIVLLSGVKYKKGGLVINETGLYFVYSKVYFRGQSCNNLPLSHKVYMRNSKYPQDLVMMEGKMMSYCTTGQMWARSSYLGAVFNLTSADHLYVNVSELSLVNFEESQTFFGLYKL
# T3: human CD95L expressed on cells (human, UniProt P48023 1-281)
# T3 construct: also called FasL; FASL
# T3 sequence: T2 chain
# T4: human CD95L (Homo sapiens, UniProt P48023)
# T4 construct: expressed in transfected cells; host or cells: HEK/293T
# T4 sequence (P48023 1-281): T2 chain
# B1: JQ3 neutralizing anti-CD95L monoclonal antibody (IgG1κ) (antibody, V domains shown)
# VH: EIQLQQTGPELVKPGASVKISCKASGFSFTDYIMVWVKQSHGKILEWIGDISPYYGTATYNLKFKGKATLTVVKSSSTAYMQLNSLTSEDSAVYYCARAPNRYEVMDYWGQGTSVTVSS
# VL: QIVFTQSPAIMSAFLGEEITLTCSASSSVSYMHWYQQKSGTSPKLLIYNTFNLASGVPSRFSGSGSGTFYSLTISSVEAEDAADYYCHQWSSYPTFGGGTKLEIK
# notes: Mouse (Balb/c) hybridoma antibody, IgG1 kappa, purified on protein A; also called JQ3 mAb
# B2: JQ3: neutralizing anti-CD95L monoclonal antibody (IgG1κ), mouse hybridoma; VL and VH domains given as sequences (antibody, V domains shown)
# VH: B1 VH
# VL: B1 VL
# Columns and labels:
# CD95L = CD95L (UniProt P48023); experiment: flow cytometry (1A12 cells)
# IgCD95L = IgCD95L (UniProt P48023); experiment: SPR
# [1] = target: T1, Ig-CD95L (soluble and cytotoxic human …); experiment: SPR
# [2] = target: T2, human CD95L expressed on cells; experiment: flow cytometry (1A12 cells)
# [3] = target: T3, human CD95L expressed on cells; experiment: flow cytometry on HEK/293T cells transiently transfected with CD95L, antibody at 1 µg/ml
# Experimental: (§1) FIG. 1. JQ3 recognizes human and simian CD95L and is a stronger neutralizing anti-CD95L mAb as compared to the commercial anti-CD95L antibody NOK-1. A. Kon, Koff and Kd of JQ3 (IgG1κ) and NOK-1 (IgG1κ) hybridoma measured by surface plasmon resonance. IgCD95L was immobilized on a sensor chip S CM5 and antibody binding features was evaluated using a Biacore T200. B. The ability of the anti-human CD95L monoclonal antibodies NOK-1 and JQ3 and anti-mouse CD95L monoclonal antibody MFL3 (1 μg/ml) to recognize human, simian or mouse CD95L was determined by flow cytometry using HEK/293T cells transiently transfected with indicated CD95L-encoding pcDNA3.1 vectors. C. The binding efficiency of NOK-1 and JQ3 was compared by flow cytometry against CD95L-expressing 1A12 cell line. Left panel: Histograms report the intensity of CD95L staining (CD95L mean of fluorescence—isotypic mean of fluorescence) according to the antibody concentration (M). Right panels: examples of CD95L staining, in red the JQ3 or NOK-1 staining and in grey the isotypic staining. Table indicates the half maximal effective concentration (EC50) for each antibody. D. The neutralizing ability of NOK1 and JQ3 mAbs was compared by incubating CD95-sensitive Jurkat cell line (5.10⁵ cells) for 24 hours with 100 ng/ml of Ig-CD95L (soluble and cytotoxic human CD95L) in the presence or absence of the indicated concentrations of antibody.
# human CD95L = target: T4, human CD95L; experiment: Flow cytometry recognition of CD95L on transiently transfected HEK/293T cells; type: cell-based; conditions: antibody 1 μg/ml, HEK/293T cells transfected with CD95L-encoding pcDNA3.1 vector
# Experimental: as §1, with “JQ3 recognizes human and simian CD95L and is a stronger neutralizing anti-CD95L mAb as compared to the commercial anti-CD95L antibody NOK-1.” left out, “(5.10^5” for “(5.10⁵”
# simian CD95L = experiment: as above; type: cell-based; conditions: antibody 1 μg/ml, HEK/293T cells transfected with CD95L-encoding pcDNA3.1 vector
# Experimental: as §1, with “JQ3 recognizes human and simian CD95L and is a stronger neutralizing anti-CD95L mAb as compared to the commercial anti-CD95L antibody NOK-1.” left out, “(5.10^5” for “(5.10⁵”
# [4] = tested on: Ig-CD95L (soluble and cytotoxic human CD95L); experiment: Neutralization of Ig-CD95L-induced cell death in Jurkat T-cells (MTT assay); type: cell-based; conditions: 24 hours, 100 ng/ml Ig-CD95L, compared with NOK-1
# Experimental: as §1, with “JQ3 recognizes human and simian CD95L and is a stronger neutralizing anti-CD95L mAb as compared to the commercial anti-CD95L antibody NOK-1.” left out, “D. The neutralizing ability of NOK1 and JQ3 mAbs was compared by incubating CD95-sensitive Jurkat cell line (5.10⁵ cells) for 24 hours with 100 ng/ml of Ig-CD95L (soluble and cytotoxic human CD95L) in the presence or absence of the indicated concentrations of antibody.” left out
# Cell viability was assessed using MTT (3-(4,5-dimethylthiazol-2-yl)-2,5-diphenyltetrazolium bromide) assay as previously described (48). […] Then, MTT (15 μl at 5 mg/mL in PBS) was added, and after 4 h of incubation at 37° C., the absorbance was measured at 570 nm wavelength using the Infinite200Pro (Tecan, Männedorf, Switzerland).
# [5] = tested on: CD95-mediated Ca^2+ response in neutrophils; experiment: Calcium response (Cal-520 imaging) of healthy donor neutrophils stimulated with patient sera; type: cell-based, human; conditions: sera from AAV or COVID-19 patients pre-incubated 30 min with antibody 10 μg/mL
molecule,measurement,setting,value
NOK-1,EC50,CD95L,353000 nM
NOK1,Kd,IgCD95L,5.3 nM
B1,Kd,[1],2.2 nM
same,EC50,[2],5.53 nM
same,binding result,[3],binds
B2,recognition of human CD95L,human CD95L,recognizes
same,recognition of simian CD95L,simian CD95L,recognizes
same,neutralizing ability (inhibition of CD95-mediated apoptotic signaling pathway),[4],stronger neutralizing anti-CD95L mAb as compared to the commercial anti-CD95L antibody NOK-1; also recorded: inhibited the CD95-mediated apoptotic signaling pathway induced in T-cell line Jurkat more efficiently than NOK-1 mAb
same,inhibition of neutrophil activation (calcium response),[5],inhibit neutrophil activation (calcium response); also recorded: blocked the CD95-mediated Ca^2+ response
